Experimental data from article PMC11233918.
Read-outs that look alike come from different tables or passages of the source.

Tests used:
Test in all cases: EMSA
SUMO-TDP-43 RRM1,2 [1] = molecular target: T1, SUMO-TDP-43 RRM1,2 (human, UniProt Q13148 102-269)
SUMO-TDP-43 RRM1,2 [2] = molecular target: T1, SUMO-TDP-43 RRM1,2; remark: listed apart in the source
SUMO-TDP-43 RRM1,2 [3] = molecular target: T1, SUMO-TDP-43 RRM1,2; remark: listed apart in the source
SUMO-TDP-43 RRM1,2 [4] = molecular target: T1, SUMO-TDP-43 RRM1,2; remark: listed apart in the source

T1 sequence (Q13148 102-269): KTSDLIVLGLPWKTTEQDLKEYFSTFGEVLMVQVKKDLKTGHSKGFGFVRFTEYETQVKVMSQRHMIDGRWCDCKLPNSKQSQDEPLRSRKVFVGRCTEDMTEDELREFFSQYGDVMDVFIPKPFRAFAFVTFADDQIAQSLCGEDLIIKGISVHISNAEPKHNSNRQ

B1: A32 (ssRNA)
RNA: AAAAAAAAAAAAAAAAAAAAAAAAAAAAAAAA
modifications: see Table S1 (not in material)
- binding result (SUMO-TDP-43 RRM1,2 [1]): no binding

B2: (GU)16 (ssRNA)
RNA: GUGUGUGUGUGUGUGUGUGUGUGUGUGUGUGU
modifications: 2'-O-methyl and phosphorothioate; positions in Table S1 (not in material)
- binding result (SUMO-TDP-43 RRM1,2 [2]): binds

B3: ('AUG12')2 (ssRNA)
RNA: GUGUGAAUGAAUGUGUGAAUGAAU
modifications: 2'-O-methyl and phosphorothioate; positions in Table S1 (not in material)
- binding result (SUMO-TDP-43 RRM1,2 [3]): binds

B4: (CA)16 (ssRNA)
RNA: CACACACACACACACACACACACACACACACA
modifications: see Table S1 (not in material)
- binding result (SUMO-TDP-43 RRM1,2 [1]): no binding

B5: (GU)6 (ssRNA)
RNA: GUGUGUGUGUGU
modifications: see Table S1 (not in material)
- binding result (SUMO-TDP-43 RRM1,2 [4]): binds
